T1: monkey B7H3-His (monkey)
T1 chain: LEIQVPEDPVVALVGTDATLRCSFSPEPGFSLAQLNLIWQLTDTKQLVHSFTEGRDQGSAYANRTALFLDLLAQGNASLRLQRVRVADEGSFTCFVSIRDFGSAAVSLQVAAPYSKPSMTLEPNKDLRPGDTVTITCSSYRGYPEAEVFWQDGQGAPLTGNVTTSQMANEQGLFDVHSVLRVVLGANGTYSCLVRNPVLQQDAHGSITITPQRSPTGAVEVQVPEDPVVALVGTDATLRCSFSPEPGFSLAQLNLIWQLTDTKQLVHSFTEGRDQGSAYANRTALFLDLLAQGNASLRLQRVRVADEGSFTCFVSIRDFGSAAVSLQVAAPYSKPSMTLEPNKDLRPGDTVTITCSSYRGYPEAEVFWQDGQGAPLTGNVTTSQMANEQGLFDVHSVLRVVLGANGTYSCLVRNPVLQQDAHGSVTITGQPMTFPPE

T2: rat B7H3-His (rat, UniProt Q7TPB4 29-244, limits assumed)
T2 construct: not shown: His tag
T2 sequence (looked up): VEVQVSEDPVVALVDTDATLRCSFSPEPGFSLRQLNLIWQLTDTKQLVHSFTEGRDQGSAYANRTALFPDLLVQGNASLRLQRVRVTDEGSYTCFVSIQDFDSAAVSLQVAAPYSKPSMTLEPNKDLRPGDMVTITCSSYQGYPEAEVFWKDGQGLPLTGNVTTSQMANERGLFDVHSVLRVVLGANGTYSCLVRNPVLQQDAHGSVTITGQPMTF

T3: human B7H3 (human, UniProt Q5ZPR3 29-466, limits assumed)
T3 construct: also called human B7H3 protein
T3 sequence (looked up): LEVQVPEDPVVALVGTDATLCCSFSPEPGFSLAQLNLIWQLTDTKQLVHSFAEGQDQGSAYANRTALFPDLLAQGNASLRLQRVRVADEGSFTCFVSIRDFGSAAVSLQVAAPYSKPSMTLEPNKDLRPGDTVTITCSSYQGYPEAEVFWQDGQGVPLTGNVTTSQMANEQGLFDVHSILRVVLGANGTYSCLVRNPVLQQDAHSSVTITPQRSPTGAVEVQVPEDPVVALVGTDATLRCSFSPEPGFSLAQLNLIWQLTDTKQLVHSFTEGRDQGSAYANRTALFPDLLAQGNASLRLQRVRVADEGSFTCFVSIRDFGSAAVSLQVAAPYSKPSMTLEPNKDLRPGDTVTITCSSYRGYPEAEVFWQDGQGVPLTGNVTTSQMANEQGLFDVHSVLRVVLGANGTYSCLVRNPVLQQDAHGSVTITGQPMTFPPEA

T4: B7H3 (CD276) on MC38-CD276+ cells
T4 construct: whole, on cells; MC38-CD276KO cells served as the negative control; also called MC38-B7H3+
T4 sequence (Q5ZPR3 1-534, species assumed, looked up): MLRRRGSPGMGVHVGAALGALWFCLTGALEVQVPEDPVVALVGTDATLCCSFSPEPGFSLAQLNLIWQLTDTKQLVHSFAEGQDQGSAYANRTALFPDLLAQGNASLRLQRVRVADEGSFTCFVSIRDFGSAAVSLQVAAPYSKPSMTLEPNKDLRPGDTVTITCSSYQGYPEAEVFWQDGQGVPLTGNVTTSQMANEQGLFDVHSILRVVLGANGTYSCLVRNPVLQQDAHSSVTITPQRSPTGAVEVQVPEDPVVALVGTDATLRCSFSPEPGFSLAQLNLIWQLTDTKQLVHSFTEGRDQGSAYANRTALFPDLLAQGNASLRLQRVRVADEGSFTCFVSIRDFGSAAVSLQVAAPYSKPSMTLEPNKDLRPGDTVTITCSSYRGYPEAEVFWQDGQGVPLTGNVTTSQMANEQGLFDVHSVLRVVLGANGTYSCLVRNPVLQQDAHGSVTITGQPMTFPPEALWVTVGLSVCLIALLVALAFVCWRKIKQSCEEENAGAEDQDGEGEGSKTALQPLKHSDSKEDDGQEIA

T5: B7H3 peptide 11 (human)
T5 peptide: SFTCFVSIRDFGSAAVSL

B1: RWG4 (VHH)
VHH: QVQLVQSGGGLVQPGGSLRLSCAASGFTFSVYWFYWVRQAPRQGLEWVSTIASNGSTYYSDSVKGRFTISRDNAKNTVYLQMNSLKPEDTAVYYCVSDPDYYSDYERAYKFWAQGTQVTVSS
notes: Camel VHH; tag not described; also called camel antibody RWG4
B2: RWG8 (VHH)
VHH: DVQLVESGGGLVQPGGSLRLSCAASGFTFSRYWMGWFRQAPGKGVEWVSTINSGGGSTYYADSVKGRFTISRDNAKNTLYLQLNNLKTEDTAMYYCAKEQWRTGSRGQGTQVTVSS
notes: Camel VHH; tag not described; also called camel antibody RWG8
B3: RWB12 (VHH)
VHH: QVQLVESGGGSVQVGGSLRLSCAASGFTYNSYSVGWFRQAPGKEREGVAAINSGGSSTYYAASVKGRFTISRDNAKNTVYLQMNSLKPEDTAMYYCAARSPSPLTFQTRTLREDSYNYWGQGTQVTVSS
notes: Camel VHH; tag not described; also called camel antibody RWB12
B4: RWC4 (VHH)
VHH: EVQLVESGGGSVQAGGSLRLSCVASEDSTSAMCMGWFRQAPGKEREGVACINPTGEVTWYGDSVKGRFTISRDTVKKIVYLQMNSLKPEDTAMYYCAARVTYGGDWSTDTDYEYWGQGTQVTVSS
notes: Camel VHH; tag not described; also called camel antibody RWC4

Target: T1, monkey B7H3-His
Experiment: phage ELISA, cross-species
Outline: (§1)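 Camel VHH phage were panned on recombinant B7H3-Fc protein for 3 rounds, using libraries from eight individual camels. Binding of the selected phage to immobilised antigens (human and other-species B7H3 or control proteins) was measured by phage ELISA and recorded as the ELISA signal.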

ELISA signal	Binder
0.19	B1
2.43	B2
2.31	B3
1.54	B4

Target: T2, rat B7H3-His
Experiment: phage ELISA, cross-species
Outline: as §1

ELISA signal	Binder
0.292	B1
2.44	B2
2.07	B3

Target: T3, human B7H3
Experiment: phage ELISA, cross-species
Outline: as §1

ELISA signal	Binder
1.72	B1
2.67	B2
2.74	B3
2.5	B4

Target: Non-relevant antigen
Experiment: phage ELISA, cross-species
Outline: as §1

ELISA signal	Binder
0.14	B1
0.0659	B2
0.0597	B3
0.0764	B4

Target: T1, monkey B7H3-His
Experiment: ELISA; row Monkey; well 1 of 3
Outline: (§2)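 The values are ELISA signals for binding of purified camel VHH nanobodies to immobilised recombinant B7H3 fusion proteins and to non-B7H3 comparison proteins. The nanobodies came from phage panning on recombinant B7H3-Fc.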

ELISA reading (name not given)	Binder
0.197	B2
0.188	B3
1	B4

Target: PD-L1
Sequence (Q9NZQ7 whole entry): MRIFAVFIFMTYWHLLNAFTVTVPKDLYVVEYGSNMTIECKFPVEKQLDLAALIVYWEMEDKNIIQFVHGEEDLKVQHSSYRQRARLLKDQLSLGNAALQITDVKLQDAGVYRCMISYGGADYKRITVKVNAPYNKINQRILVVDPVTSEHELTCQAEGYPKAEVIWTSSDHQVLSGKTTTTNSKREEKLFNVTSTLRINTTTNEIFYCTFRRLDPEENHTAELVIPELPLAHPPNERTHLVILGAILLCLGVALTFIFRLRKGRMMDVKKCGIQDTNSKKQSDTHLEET
Experiment: ELISA; row PDL1-Fc; well 2 of 3
Outline: as §2

ELISA reading (name not given)	Binder
0.0633	B2
0.0685	B3
0.0627	B4

Target: B7H3 R&D
Experiment: ELISA; row B7H3 R&D; well 1 of 3
Outline: as §2

ELISA reading (name not given)	Binder
0.0696	B2
0.0582	B3
0.132	B4

Target: T4, B7H3 (CD276) on MC38-CD276+ cells
Experiment: flow cytometry on MC38-CD276+ cells, VHH at 50 ug/ml

Positive rates [%]	Binder
91.5	B1
26.5	B2
12	B3
98.8	B4

Target: T5, B7H3 peptide 11
Experiment: peptide ELISA (OD450), 18-mer peptides of human B7H3
Description: FIGS. 21A-21C: G8 cross-reacts with mouse B7H3 and kills mouse cancer cells. (FIG. 21A) Binding activity of anti-B7H3 nanobodies to mouse antigen detected by flow cytometry. […] (FIG. 21C). […] A total of 48 peptides from the human B7H3 protein were designed and synthesized. Each peptide consisted of 18 amino acids and overlapped with adjacent peptides by 9 amino acids. ELISA technology was used to test binding ability of antibody to each peptide. Number indicates the OD₄₅₀ value. […] The peptide sequences are shown below the table. C4 and B12 may have a conformational epitope that couldn't be predicted by a linearized peptide library.
A total of 48 peptides from the human B7H3 protein were designed and synthesized. Each peptide consisted of 18 amino acids and overlapped with adjacent peptides by 9 amino acids. ELISA technology was used to test binding ability of the antibodies to each peptide (FIG. 21C). […] C4 and B12 may have a conformational epitope that couldn't be predicted by a linearized peptide library.

binding result	Binder
binds	B2
no binding	B3
no binding	B4

Reference: US20220380471A1 (US Dept. of Health and Human Services, published 2022)
